From patent US20230313217A1, “CHLOROPLAST TARGETING PEPTIDES AND CONJUGATES AND COMPOSITIONS THEREOF” (The Regents of the University of California, priority 2021, published 2023)
Ends that are not written are not given here.

Key:
[1] = Hydrodynamic size by dynamic light scattering; assay type: physicochemical; settings: 10 mM TES buffer, pH 7
Experimental: The resulting PEI-SWCNT suspension was characterized by measuring the absorbance spectra on a UV-vis absorbance spectrophotometer (UV-2600, Shimadzu). The quality of the SWCNT suspension was determined by analyzing absorbance peaks at 632 nm. This measurement was performed with triplicates. The concentration of the PEI-SWCNT was determined spectrophotometrically using the absorption value at 632 nm and utilizing the equation (absorbance at 632 nm/extinction coefficient of 0.036)=mg L^−1. The final concentration obtained after purification ranged from 18 to 30 mg/L. The nanoparticle ζ potential was measured using a Zetasizer (Nano ZS, Malvern Instruments) in samples suspended in 10 mM TES buffer pH 7.0, with 0.1 mM NaCl. The hydrodynamic size was measured using Zetasizer (Nano ZS, Malvern Instruments) in samples suspended in a 10 mM TES buffer at pH 7.
Characterization of Nanomaterials. All nanomaterials were characterized by absorbance UV-vis spectroscopy (UV-2600 Shimadzu), hydrodynamic size (Nano S), and ζ potential (Nano ZS). The nanomaterial ζ potential and hydrodynamic diameter were measured in a 10 mM TES buffer (pH 7.0). The ζ potential measurements were performed in 0.1 mM NaCl to improve conductivity and analyzed by the Hückel approximation model.^111 CD fluorescence emission was collected using a fluorescence spectrometer (Horiba PTI QM-400). […]

[2] = test system: isolated chloroplasts; experiment: Intact chloroplast analysis by DIC microscopy; set-up: species or system Arabidopsis thaliana; settings: 1 and 5 days, 20 mg/L / 2 mg/L
Excerpt: Interactions of Targeted Carbon Nanostructures with Plant Cell and Chloroplast Membranes. Damage to plant lipid membranes may cause ion and molecule permeability changes across the membrane, interruption of metabolic processes, intracellular signaling, and trafficking of biomolecules.^65,66 The application of targeted nanostructures with high charge allows penetration of plant cell barriers and localization inside organelles that could cause disruption in lipid membrane integrity. Plant cell membrane intactness in leaves treated with TP-β-CDs or TP-pATV1-SWCNTs (Table 1) was assessed by staining dead cells with propidium iodide (PI) dye followed by imaging under confocal microscopy (FIG. 7A). PI is a nonpermeable dye that only crosses the cell membranes when they are damaged. The overall percentage of intact cells without PI stained nuclei was calculated relative to the total number of cells (FIG. 7B). […] Both TP-β-CDs and TP-pATV1-SWCNTs maintained more than 93% of plant cells with intact membranes after 1 and 5 days of exposure, similar to controls without nanoparticles (FIG. 7B). […]
Identification of intact chloroplast was performed as reported in previous studies^4,5 with some modifications. […] The average from ten images from each of the seven biological replicates was quantified for calculating the average percentage of intact chloroplasts.

In the case of “TP-β-CD: carbon dots with β-cyclodextrin molecular baskets covalently bonded to chloroplast targeting peptide MASSMLSSATMVGGC (SEQ ID NO:5) (also: covalently bonded to carbon dots with β-cyclodextrin, site not given here)”, the “hydrodynamic size (DLS)” value [1] is reported as 27.8±5.8 nm and the chloroplast membrane intactness [2] is reported as “did not affect chloroplast membrane damage”.
